molecular target: T1, human FcRn (soluble human FcRn complexed with β2-microglobulin) (human, UniProt P61769 21-119, limits assumed); assay: SPR, pH 7.0;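 also: antibodies captured on a Protein L sensor chip with human FcRn injected as analyte, KD calculated from fitted association and dissociation rate constants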
T1 construct: also called hFcRn

Binder	Kd
IgG1-F266 (antibody, EU numbering; copies: 2 + 2) heavy: QVQLQESGPGLVKPSETLSLTCAVSGHSISHDHAWSWVRQPPGEGLEWIGFISYSGITNYNPSLQGRVTISRDNSKNTLYLQMNSLRAEDTAVYYCARSLARTTAMDYWGEGTLVTVSSASTKGPSVFPLAPSSKSTSGGTAALGCLVKDYFPEPVTVSWNSGALTSGVHTFPAVLQSSGLYSLSSVVTVPSSSLGTQTYICNVNHKPSNTKVDKKVEPKSCDKTHTCPPCPAPELLGGPSVFLFPPKPKDTLYISRTPEVTCVVVDVSHEDPEVKFNWYVDGVEVHNAKTKPREEQYNSTYRVVSVLAVLHQDWLNGKEYKCKVSNKALPAPIEKTISKAKGQPREPQVYTLPPSRDELTKNQVSLTCLVKGFYPSDIAVEWASNGQPENNYKTTPPVLDSDGSFFLYSKLTVDKSRWQQGNVFSCSVYHEALHYHYTQKSLSLSP light: not shown	470 nM
IgG1-F265 (antibody, EU numbering; copies: 2 + 2) heavy: QVQLQESGPGLVKPSETLSLTCAVSGHSISHDHAWSWVRQPPGEGLEWIGFISYSGITNYNPSLQGRVTISRDNSKNTLYLQMNSLRAEDTAVYYCARSLARTTAMDYWGEGTLVTVSSASTKGPSVFPLAPSSKSTSGGTAALGCLVKDYFPEPVTVSWNSGALTSGVHTFPAVLQSSGLYSLSSVVTVPSSSLGTQTYICNVNHKPSNTKVDKKVEPKSCDKTHTCPPCPAPELLGGPSVFLFPPKPKDTLYISRTPEVTCVVVDVSHEDPEVKFNWYVDGVEVHNAKTKPREEQYNSTYRVVSVLTVLHQDWLNGKEYKCKVSNKALPAPIEKTISKAKGQPREPQVYTLPPSRDELTKNQVSLTCLVKGFYPSDIAVEWASNGQPENNYKTTPPVLDSDGSFFLYSKLTVDKSRWQQGNVFSCSVYHEALHYHYTQKSLSLSP light: not shown	680 nM
IgG1-F272 (antibody, EU numbering; copies: 2 + 2) heavy: QVQLQESGPGLVKPSETLSLTCAVSGHSISHDHAWSWVRQPPGEGLEWIGFISYSGITNYNPSLQGRVTISRDNSKNTLYLQMNSLRAEDTAVYYCARSLARTTAMDYWGEGTLVTVSSASTKGPSVFPLAPSSKSTSGGTAALGCLVKDYFPEPVTVSWNSGALTSGVHTFPAVLQSSGLYSLSSVVTVPSSSLGTQTYICNVNHKPSNTKVDKKVEPKSCDKTHTCPPCPAPELLGGPSVFLFPPKPKDTLYISRTPEVTCVVVDVSHEDPEVKFNWYVDGVEVHNAKTKPREEQYNSTYRVVSVLTVLHQDWLNGKEYKCKVSNKALPAPIEKTISKAKGQPREPQVYTLPPSRDELTKNQVSLTCLVKGFYPSDIAVAWESNGQPENNYKTTPPVLDSDGSFFLYSKLTVDKSRWQQGNVFSCSVFHEALHYHYTQKSLSLSP light: not shown	680 nM
IgG1-F267 (antibody, EU numbering; copies: 2 + 2) heavy: QVQLQESGPGLVKPSETLSLTCAVSGHSISHDHAWSWVRQPPGEGLEWIGFISYSGITNYNPSLQGRVTISRDNSKNTLYLQMNSLRAEDTAVYYCARSLARTTAMDYWGEGTLVTVSSASTKGPSVFPLAPSSKSTSGGTAALGCLVKDYFPEPVTVSWNSGALTSGVHTFPAVLQSSGLYSLSSVVTVPSSSLGTQTYICNVNHKPSNTKVDKKVEPKSCDKTHTCPPCPAPELLGGPSVFLFPPKPKDTLYISRTPEVTCVVVDVSHEDPEVKFNWYVDGVEVHNAKTKPREEQYNSTYRVVSVLQVLHQDWLNGKEYKCKVSNKALPAPIEKTISKAKGQPREPQVYTLPPSRDELTKNQVSLTCLVKGFYPSDIAVEWASNGQPENNYKTTPPVLDSDGSFFLYSKLTVDKSRWQQGNVFSCSVYHEALHYHYTQKSLSLSP light: not shown	320 nM
IgG1-F270 (antibody, EU numbering; copies: 2 + 2) heavy: QVQLQESGPGLVKPSETLSLTCAVSGHSISHDHAWSWVRQPPGEGLEWIGFISYSGITNYNPSLQGRVTISRDNSKNTLYLQMNSLRAEDTAVYYCARSLARTTAMDYWGEGTLVTVSSASTKGPSVFPLAPSSKSTSGGTAALGCLVKDYFPEPVTVSWNSGALTSGVHTFPAVLQSSGLYSLSSVVTVPSSSLGTQTYICNVNHKPSNTKVDKKVEPKSCDKTHTCPPCPAPELLGGPSVFLFPPKPKDTLYISRTPEVTCVVVDVSHEDPEVKFNWYVDGVEVHNAKTKPREEQYNSTYRVVSVLTVLHQDWLNGKEYKCKVSGKALPAPIEKTISKAKGQPREPQVYTLPPSRDELTKNQVSLTCLVKGFYPSDIAVEWESNGQPENNYKTTPPVLDSDGSFFLYSKLTVDKSRWQQGNVFSCSVFHEALHYHYTQKSLSLSP light: not shown	660 nM
IgG1-F274 (antibody, EU numbering; copies: 2 + 2) heavy: QVQLQESGPGLVKPSETLSLTCAVSGHSISHDHAWSWVRQPPGEGLEWIGFISYSGITNYNPSLQGRVTISRDNSKNTLYLQMNSLRAEDTAVYYCARSLARTTAMDYWGEGTLVTVSSASTKGPSVFPLAPSSKSTSGGTAALGCLVKDYFPEPVTVSWNSGALTSGVHTFPAVLQSSGLYSLSSVVTVPSSSLGTQTYICNVNHKPSNTKVDKKVEPKSCDKTHTCPPCPAPELLGGPSVFLFPPKPKDTLYISRTPEVTCVVVDVSHEDPEVKFNWYVDGVEVHNAKTKPREEQYNSTYRVVSVLTVLHQDWLNGKEYKCKVSNKALPAPIEKTISKAKGQPREPQVYTLPPSRDELTKNQVSLTCLVKGFYPSDIAVAWASNGQPENNYKTTPPVLDSDGSFFLYSKLTVDKSRWQQGNVFSCSVFHEALHYHYTQKSLSLSP light: not shown	760 nM
IgG1-F268 (antibody, EU numbering; copies: 2 + 2) heavy: QVQLQESGPGLVKPSETLSLTCAVSGHSISHDHAWSWVRQPPGEGLEWIGFISYSGITNYNPSLQGRVTISRDNSKNTLYLQMNSLRAEDTAVYYCARSLARTTAMDYWGEGTLVTVSSASTKGPSVFPLAPSSKSTSGGTAALGCLVKDYFPEPVTVSWNSGALTSGVHTFPAVLQSSGLYSLSSVVTVPSSSLGTQTYICNVNHKPSNTKVDKKVEPKSCDKTHTCPPCPAPELLGGASVFLFPPKPKDTLYISRTPEVTCVVVDVSHEDPEVKFNWYVDGVEVHNAKTKPREEQYNSTYRVVSVLTVLHQDWLNGKEYKCKVSNKALPAPIEKTISKAKGQPREPQVYTLPPSRDELTKNQVSLTCLVKGFYPSDIAVEWESNGQPENNYKTTPPVLDSDGSFFLYSKLTVDKSRWQQGNVFSCSVFHEALHYHYTQKSLSLSP light: not shown	630 nM

Continued by falling Kd, values first:

Kd	Binder
520 nM	IgG1-F269 (antibody, EU numbering; copies: 2 + 2) heavy: QVQLQESGPGLVKPSETLSLTCAVSGHSISHDHAWSWVRQPPGEGLEWIGFISYSGITNYNPSLQGRVTISRDNSKNTLYLQMNSLRAEDTAVYYCARSLARTTAMDYWGEGTLVTVSSASTKGPSVFPLAPSSKSTSGGTAALGCLVKDYFPEPVTVSWNSGALTSGVHTFPAVLQSSGLYSLSSVVTVPSSSLGTQTYICNVNHKPSNTKVDKKVEPKSCDKTHTCPPCPAPELLGGPSVFLFPPKPKDTLYISRTPEVTCVVVDVSHEDPEVKFNWYVDGVEVHNAKTKPREEQYNSTYRVVSALTVLHQDWLNGKEYKCKVSNKALPAPIEKTISKAKGQPREPQVYTLPPSRDELTKNQVSLTCLVKGFYPSDIAVEWESNGQPENNYKTTPPVLDSDGSFFLYSKLTVDKSRWQQGNVFSCSVFHEALHYHYTQKSLSLSP light: not shown
280 nM	IgG1-F264 (antibody, EU numbering; copies: 2 + 2) heavy: QVQLQESGPGLVKPSETLSLTCAVSGHSISHDHAWSWVRQPPGEGLEWIGFISYSGITNYNPSLQGRVTISRDNSKNTLYLQMNSLRAEDTAVYYCARSLARTTAMDYWGEGTLVTVSSASTKGPSVFPLAPSSKSTSGGTAALGCLVKDYFPEPVTVSWNSGALTSGVHTFPAVLQSSGLYSLSSVVTVPSSSLGTQTYICNVNHKPSNTKVDKKVEPKSCDKTHTCPPCPAPELLGGPSVFLFPPKPKDTLYISRTPEVTCVVVDVSHEDPEVKFNWYVDGVEVHNAKTKPREEQYNSTYRVVSVLTVLHQDWLNGKEYKCKVSNKALPAPIEKTISKAKGQPREPQVYTLPPSRDELTKNQVSLTCLVKGFYPSDIAVEWASNGQPENNYKTTPPVLDSDGSFFLYSKLTVDKSRWQQGNVFSCSVMHEALHYHYTQKSLSLSP light: not shown
130 nM	IgG1-F277 (antibody, EU numbering; copies: 2 + 2) heavy: QVQLQESGPGLVKPSETLSLTCAVSGHSISHDHAWSWVRQPPGEGLEWIGFISYSGITNYNPSLQGRVTISRDNSKNTLYLQMNSLRAEDTAVYYCARSLARTTAMDYWGEGTLVTVSSASTKGPSVFPLAPSSKSTSGGTAALGCLVKDYFPEPVTVSWNSGALTSGVHTFPAVLQSSGLYSLSSVVTVPSSSLGTQTYICNVNHKPSNTKVDKKVEPKSCDKTHTCPPCPAPELLGGPKVFLFPPKPKDTLYISRTPEVTCVVVDVSHEDPEVKFNWYVDGVEVHNAKTKPREEQYNSTYRVVSVLTPLHQDWLNGKEYKCKVSNKALPAPIEKTISKAKGQPREPQVYTLPPSRDELTKNQVSLTCLVKGFYPSDIAVEWESNGQPENNYKTTPPVLDSDGSFFLYSKLTVDKSRWQQGNVFSCSVYHEALHYHYTQKSLSLSP light: not shown
110 nM	IgG1-F263 (antibody, EU numbering; copies: 2 + 2) heavy: QVQLQESGPGLVKPSETLSLTCAVSGHSISHDHAWSWVRQPPGEGLEWIGFISYSGITNYNPSLQGRVTISRDNSKNTLYLQMNSLRAEDTAVYYCARSLARTTAMDYWGEGTLVTVSSASTKGPSVFPLAPSSKSTSGGTAALGCLVKDYFPEPVTVSWNSGALTSGVHTFPAVLQSSGLYSLSSVVTVPSSSLGTQTYICNVNHKPSNTKVDKKVEPKSCDKTHTCPPCPAPELLGGPSVFLFPPKPKDTLYISRTPEVTCVVVDVSHEDPEVKFNWYVDGVEVHNAKTKPREEQYNSTYRVVSVLQVLHHDWLNGKEYKCKVSNKALPAPIEKTISKAKGQPREPQVYTLPPSRDELTKNQVSLTCLVKGFYPSDIAVEWESNGQPENNYKTTPPVLDSDGSFFLYSKLTVDKSRWQQGNVFSCSVMHEALHYHYTQKSLSLSP light: not shown
42 nM	IgG1-F275 (antibody, EU numbering; copies: 2 + 2) heavy: QVQLQESGPGLVKPSETLSLTCAVSGHSISHDHAWSWVRQPPGEGLEWIGFISYSGITNYNPSLQGRVTISRDNSKNTLYLQMNSLRAEDTAVYYCARSLARTTAMDYWGEGTLVTVSSASTKGPSVFPLAPSSKSTSGGTAALGCLVKDYFPEPVTVSWNSGALTSGVHTFPAVLQSSGLYSLSSVVTVPSSSLGTQTYICNVNHKPSNTKVDKKVEPKSCDKTHTCPPCPAPELLGGPKVFLFPPKPKDTLYISRTPEVTCVVVDVSHEDPEVKFNWYVDGVEVHNAKTKPREEQYNSTYRVVSVLTPLHQDWLNGKEYKCKVSNKALPAPIEKTISKAKGQPREPQVYTLPPSRDELTKNQVSLTCLVKGFYPSDIAVEWASNGQPENNYKTTPPVLDSDGSFFLYSKLTVDKSRWQQGNVFSCSVMHEALHYHYTQKSLSLSP light: not shown
30 nM	IgG1-F278 (antibody, EU numbering; copies: 2 + 2) heavy: QVQLQESGPGLVKPSETLSLTCAVSGHSISHDHAWSWVRQPPGEGLEWIGFISYSGITNYNPSLQGRVTISRDNSKNTLYLQMNSLRAEDTAVYYCARSLARTTAMDYWGEGTLVTVSSASTKGPSVFPLAPSSKSTSGGTAALGCLVKDYFPEPVTVSWNSGALTSGVHTFPAVLQSSGLYSLSSVVTVPSSSLGTQTYICNVNHKPSNTKVDKKVEPKSCDKTHTCPPCPAPELLGGPSVFLFPPKPKDTLYISRTPEVTCVVVDVSHEDPEVKFNWYVDGVEVHNAKTKPREEQYNSTYRVVSVLQPLHQDWLNGKEYKCKVSNKALPAPIEKTISKAKGQPREPQVYTLPPSRDELTKNQVSLTCLVKGFYPSDIAVEWASNGQPENNYKTTPPVLDSDGSFFLYSKLTVDKSRWQQGNVFSCSVMHEALHYHYTQKSLSLSP light: not shown
